US20030170252A1, “Antibody compositions specific for p33QIK and p63Krs1 polypeptides and uses thereof” (priority 2000, published 2003)

B1: caspase-3: Recombinant human Caspase-3 purchased from Alexis Biochemicals (protein)
chain: SGISLDNSYKMDYPEMGLCIIINNKNFHKSTGMTSRSGTDVDAANLRETFRNLKYEVRNKNDLTREEIVELMRDVSKEDHSKRSSFVCVLLSHGEEGIIFGTNGPVDLKKITNFFRGDRCRSLTGKPKLFIIQACRGTELDCGIETDSGVDDDMACHKIPVEADFLYAYSTAPGYYSWRNSKDGSWFIQSLCAMLKQYADKLEFMHILTRVNRKVATEFESFSFDATFHAKKQIPCIVSMLTKELYFYH
B2: Lambda phosphatase: Lambda protein phosphatase purchased from NE BioLabs (protein)
chain: MRYYEKIDGSKYRNIWVVGDLHGCYTNLMNKLDTIGFDNKKDLLISVGDLVDRGAENVECLELITFPWFRAVRGNHEQMMIDGLSERGNVNHWLLNGGGWFFNLDYDKEILAKALAHKADELPLIIELVSKDKKYVICHADYPFDEYEFGKPVDHQQVIWNRERISNSQNGIVKEIKGADTFIFGHTPAVKPLKFANQMYIDTGAVFCGNLTLIQVQGEGA

Columns and labels:
[1] = tested on: p63^Krsl, p35, and p33^QIK; assay: Caspase-3 treatment of Ab-KQ immune complexes, in-gel kinase readout; type: biochemical, mouse; conditions: 0.2 μg Caspase-3, 37° C., 30 min
Protocol: Both p63^Krsl and p33^QIK in 10 μg of cytosolic lysates (S20) were immunoprecipitated by Ab-KQ (lanes 2 to 4 and 6 to 8), followed by reatment with 0.2 μg Caspase-3 (C)(lanes 3, 4, 7 and 8) in the presence of 5 μM caspase inhibitor Z-D-CH2-DCB (C+I)(lanes 4 and 8) at 37° C. for 30 min. The kinase activities of p63^Krsl, p35, and p33^QIK in 5 μg of S20 (lanes 1 and 5) and in the immune complexes were determined by the in-gel kinase assay using MBP as a substrate. Bars indicate p63^Krsl p35, and p33^QIK.
(§1) MBP (BRL/GIBCO, Grand Island, N.Y.) was used as a substrate in the assay and the in-gel kinase assay was performed as previously described (Wang et al., 1992). Briefly, 10% SDS-polyacrylamide gel (SDS-PAG) was copolymerized with 0.4 mg/ml MBP. Cellular proteins were resolved in the MBP-immobilized SDS-PAG, followed by rinsing the gel with 20% isopropanol in buffer B (100 mM Tris, pH 8, 5 mM β-mercaptoethanol). The gel was denatured in buffer B supplemented with 6 M guanidine-HCl and renatured with buffer B supplemented with 0.04% Tween 40 (Kameshita and Fujisawa, 1989). Kinase reaction was carried out by incubating the gel with kinase buffer (20 Mm Tris, pH 7.2, 10 mM MgCl2, 15 mM β-glycerolphosphate) supplemented with 50 μM γATP and 50 μCi of [γ-^32P]ATP at 22° C. for 30 min. […] Protein kinases which phosphorylated MBP in the gel were detected by autoradiography of the [γ^32P]-labeled MBP. […]

p33^QIK = assay: Phosphatase treatment of immunoprecipitated p33^QIK, in-gel kinase readout; type: biochemical, mouse; conditions: immune complexes from quiescent or osmotic-stressed quiescent cells; 0.1 unit PP1, 30° C., 30 min
Protocol: NIH3T3 cultures were synchronized in quiescent state by serum starvation for 48 hr (G0), followed by treatment with 300 mM NaCl (G0/NaCl) for 2 hr. p33^QIK in 10 μg of cytosolic lysates (S20) were immunoprecipitated by Ab-KQ (IP), followed by incubation of the immune complexes with 0.1 unit of PP1 (Ps) (lanes 2, 3, 5 and 6) in phosphatase buffer (50 mM Tris-HCl, pH 7.0, 0.1 mM EDTA, 5 mM dithiothreitol, 0.01% Brij 35, 2 mM MnCl2) in the presence of 10 mM Na3VO4 and 50 mM NaF (Ps+I)(lanes 3 and 6) at 30° C. for 30 min. The kinase activity of p33^QIK in the immune complexes was determined by the in-gel kinase assay using MBP as a substrate. Bar indicates p33^QIK.
as §1, with “1989).” for “1989). Kinase reaction was carried out by incubating the gel with kinase buffer (20 Mm Tris, pH 7.2, 10 mM MgCl2, 15 mM β-glycerolphosphate) supplemented with 50 μM γATP and 50 μCi of [γ-^32P]ATP at 22° C. for 30 min.”

Row | Molecule | kinase activities of p63^Krsl, p35 and p33^QIK in immune complexes ([1]; immune complexes from STSP-treated cells) | kinase activity of p33^QIK in immune complexes ([1]; p33^QIK isolated from osmotic-stressed quiescent or growing cultures) | kinase activity of activated p33^QIK after phosphatase treatment (p33^QIK)
1 | B1 | both the kinase activities of p63^Krsl and p35 decreased in correlation with an increased p33^QIK activity | no change was detected in the kinase activity of p33^QIK | –
2 | B2 | – | – | A similar result was obtained
